From the supplement of paper PMC10567573

B1: CPXM2 (parent)
chain: TASTKNCMVGYDMGATRCDFTLSK

Variants of: B1
Test: protein stability index of a GFP-peptide fusion (GPS, HEK-293T) (PSI 1-6); higher = more stable
Conditions: c terminus: a fixed tail appended
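Also: lentivirally expressed fusions sorted by FACS into six bins by GFP to DsRed ratio, PSI derived from sequencing read proportions per bin multiplied by bin number.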

| Variant | protein stability index |
| --- | --- |
| TASTKNCMVGYDMGATRCDMTLSK | 2.78 |
| TASTKNCMVGYDMGATRCDATLSK | 2.51 |
| TASTKNCMVGYDMGATRCDHTLSK | 3.5 |
| TASTKNCMVGYDMGATRCDTTLSK | 3.88 |
| TASTKNCMVGYDMGATRCDPTLSK | 4.12 |
| TASTKNCMVGYDMGATRCDLTLSK | 2.42 |
| TASTKNCMVGYDMGATRCDRTLSK | 3.63 |
| TASTKNCMVGYDMGATRCDWTLSK | 2.28 |
| TASTKNCMVGYDMGATRCDVTLSK | 2.81 |
| TASTKNCMVGYDMGATRCDITLSK | 2.69 |
| TASTKNCMVGYDMGATRCDGTLSK | 3.5 |
| TASTKNCMVGYDMGATRCDYTLSK | 2.13 |
| TASTKNCMVGYDMGATRCDCTLSK | 2.52 |
| TASTKNCMVGYDMGATRCDSTLSK | 2.99 |
| TASTKNCMVGYDMGATRCDKTLSK | 3.67 |
| TASTKNCMVGYDMGATRCDETLSK | 4.26 |
| TASTKNCMVGYDMGATRCDQTLSK | 3.05 |
| TASTKNCMVGYDMGATRCDNTLSK | 2.98 |
| TASTKNCMVGYDMGATRCDDTLSK | 3.85 |
| TASTKNCMVGYDMGATRCDFTRSK | 2.35 |
| TASTKNCMVGYDMGATRCDFTISK | 1.88 |
| TASTKNCMVGYDMGATRCDFTPSK | 2.48 |
| TASTKNCMVGYDMGATRCDFTTSK | 3.23 |
| TASTKNCMVGYDMGATRCDFTDSK | 3.58 |

| Variant | protein stability index |
| --- | --- |
| TASTKNCMVGYDMGATRCDFTNSK | 3.41 |
| TASTKNCMVGYDMGATRCDFTSSK | 2.41 |
| TASTKNCMVGYDMGATRCDFTWSK | 1.74 |
| TASTKNCMVGYDMGATRCDFTESK | 3.07 |
| TASTKNCMVGYDMGATRCDFTCSK | 2.42 |
| TASTKNCMVGYDMGATRCDFTYSK | 2.26 |
| TASTKNCMVGYDMGATRCDFTASK | 2.64 |
| TASTKNCMVGYDMGATRCDFTMSK | 2.39 |
| TASTKNCMVGYDMGATRCDFTHSK | 3.06 |
| TASTKNCMVGYDMGATRCDFTVSK | 2.52 |
| TASTKNCMVGYDMGATRCDFTFSK | 2.12 |
| TASTKNCMVGYDMGATRCDFTGSK | 3.48 |
| TASTKNCMVGYDMGATRCDFTQSK | 2.96 |
| TASTKNCMVGYDMGATRCDFTKSK | 3.36 |
| TASTKNCMVGYDMGAVRCDFTLSK | 2.66 |
| TASTKNCMVGYDMGALRCDFTLSK | 2.45 |
| TASTKNCMVGYDMGANRCDFTLSK | 2.75 |
| TASTKNCMVGYDMGAMRCDFTLSK | 2.28 |
| TASTKNCMVGYDMGAERCDFTLSK | 2.97 |
| TASTKNCMVGYDMGAFRCDFTLSK | 1.75 |
| TASTKNCMVGYDMGAYRCDFTLSK | 2.17 |
| TASTKNCMVGYDMGAPRCDFTLSK | 2.62 |
| TASTKNCMVGYDMGAARCDFTLSK | 2.7 |
| TASTKNCMVGYDMGAKRCDFTLSK | 2.74 |

| Variant | protein stability index |
| --- | --- |
| TASTKNCMVGYDMGAIRCDFTLSK | 1.6 |
| TASTKNCMVGYDMGAHRCDFTLSK | 2.47 |
| TASTKNCMVGYDMGAGRCDFTLSK | 2.27 |
| TASTKNCMVGYDMGADRCDFTLSK | 3.72 |
| TASTKNCMVGYDMGACRCDFTLSK | 2.26 |
| TASTKNCMVGYDMGARRCDFTLSK | 3.06 |
| TASTKNCMVGYDMGAQRCDFTLSK | 2.86 |
| TASTKNCMVGYDMGAWRCDFTLSK | 2.39 |
| TASTKNCMVGYDMGASRCDFTLSK | 2.81 |
| TASTKNCMVGYDMWATRCDFTLSK | 2.15 |
| TASTKNCMVGYDMEATRCDFTLSK | 2.97 |
| TASTKNCMVGYDMPATRCDFTLSK | 2.84 |
| TASTKNCMVGYDMYATRCDFTLSK | 1.59 |
| TASTKNCMVGYDMDATRCDFTLSK | 3.63 |
| TASTKNCMVGYDMNATRCDFTLSK | 3.17 |
| TASTKNCMVGYDMIATRCDFTLSK | 2.31 |
| TASTKNCMVGYDMCATRCDFTLSK | 1.99 |
| TASTKNCMVGYDMKATRCDFTLSK | 2.76 |
| TASTKNCMVGYDMHATRCDFTLSK | 3 |
| TASTKNCMVGYDMRATRCDFTLSK | 2.88 |
| TASTKNCMVGYDMQATRCDFTLSK | 2.44 |
| TASTKNCMVGYDMSATRCDFTLSK | 2.5 |
| TASTKNCMVGYDMMATRCDFTLSK | 2.17 |
| TASTKNCMVGYDMLATRCDFTLSK | 2.31 |

| Variant | protein stability index |
| --- | --- |
| TASTKNCMVGYDMVATRCDFTLSK | 1.75 |
| TASTKNCMVGYDMTATRCDFTLSK | 2.76 |
| TASTKNCMVGYDMFATRCDFTLSK | 1.93 |
| TASTKNCMVGYDMAATRCDFTLSK | 2.89 |
| TASTKNCMVGYDMGYTRCDFTLSK | 2.19 |
| TASTKNCMVGYDMGFTRCDFTLSK | 2.51 |
| TASTKNCMVGYDMGNTRCDFTLSK | 2.62 |
| TASTKNCMVGYDMGETRCDFTLSK | 2.75 |
| TASTKNCMVGYDMGLTRCDFTLSK | 2.71 |
| TASTKNCMVGYDMGPTRCDFTLSK | 2.33 |
| TASTKNCMVGYDMGDTRCDFTLSK | 2.78 |
| TASTKNCMVGYDMGRTRCDFTLSK | 1.89 |
| TASTKNCMVGYDMGMTRCDFTLSK | 2.07 |
| TASTKNCMVGYDMGVTRCDFTLSK | 3.16 |
| TASTKNCMVGYDMGSTRCDFTLSK | 1.68 |
| TASTKNCMVGYDMGQTRCDFTLSK | 2.77 |
| TASTKNCMVGYDMGITRCDFTLSK | 2.58 |
| TASTKNCMVGYDMGGTRCDFTLSK | 2.61 |
| TASTKNCMVGYDMGKTRCDFTLSK | 2.84 |
| TASTKNCMVGYDMGCTRCDFTLSK | 1.8 |
| TASTKNCMVGYDMGWTRCDFTLSK | 2.71 |
| TASTKNCMVGYDMGTTRCDFTLSK | 2.37 |
| TASTKNCMVGYDMGHTRCDFTLSK | 2.89 |
| TASTKNCMVGYDMGATRIDFTLSK | 2.84 |

| Variant | protein stability index |
| --- | --- |
| TASTKNCMVGYDMGATRWDFTLSK | 3.08 |
| TASTKNCMVGYDMGATRVDFTLSK | 2.19 |
| TASTKNCMVGYDMGATRNDFTLSK | 2.43 |
| TASTKNCMVGYDMGATRTDFTLSK | 2.66 |
| TASTKNCMVGYDMGATRGDFTLSK | 1.87 |
| TASTKNCMVGYDMGATRLDFTLSK | 2.4 |
| TASTKNCMVGYDMGATREDFTLSK | 3.53 |
| TASTKNCMVGYDMGATRRDFTLSK | 2.68 |
| TASTKNCMVGYDMGATRKDFTLSK | 3.57 |
| TASTKNCMVGYDMGATRMDFTLSK | 2.59 |
| TASTKNCMVGYDMGATRDDFTLSK | 2.98 |
| TASTKNCMVGYDMGATRADFTLSK | 2.04 |
| TASTKNCMVGYDMGATRQDFTLSK | 1.75 |
| TASTKNCMVGYDMGATRYDFTLSK | 2.46 |
| TASTKNCMVGYDMGATRFDFTLSK | 2.42 |
| TASTKNCMVGYDMGATRPDFTLSK | 3.2 |
| TASTKNCMVGYDMGATRSDFTLSK | 2.27 |
| TASTKNCMVGYDMGATRHDFTLSK | 2.8 |
| TASTKNCMVGYDMGATSCDFTLSK | 3.31 |
| TASTKNCMVGYDMGATWCDFTLSK | 2.13 |
| TASTKNCMVGYDMGATFCDFTLSK | 2.81 |
| TASTKNCMVGYDMGATACDFTLSK | 3.87 |
| TASTKNCMVGYDMGATICDFTLSK | 3.2 |
| TASTKNCMVGYDMGATKCDFTLSK | 3.28 |

| Variant | protein stability index |
| --- | --- |
| TASTKNCMVGYDMGATNCDFTLSK | 3.32 |
| TASTKNCMVGYDMGATPCDFTLSK | 3.57 |
| TASTKNCMVGYDMGATECDFTLSK | 3.79 |
| TASTKNCMVGYDMGATGCDFTLSK | 3.72 |
| TASTKNCMVGYDMGATQCDFTLSK | 3.67 |
| TASTKNCMVGYDMGATYCDFTLSK | 2.63 |
| TASTKNCMVGYDMGATTCDFTLSK | 3.38 |
| TASTKNCMVGYDMGATLCDFTLSK | 3.53 |
| TASTKNCMVGYDMGATVCDFTLSK | 3.7 |
| TASTKNCMVGYDMGATHCDFTLSK | 2.72 |
| TASTKNCMVGYDMGATDCDFTLSK | 3.96 |
| TASTKNCMVGYDMGATCCDFTLSK | 3.49 |
| TASTKNCMVGYDMGATMCDFTLSK | 3.07 |
| TASTKNCMVGYDMGATRCDFTLCK | 1.46 |
| TASTKNCMVGYDMGATRCDFTLIK | 1.89 |
| TASTKNCMVGYDMGATRCDFTLLK | 2.67 |
| TASTKNCMVGYDMGATRCDFTLEK | 2.45 |
| TASTKNCMVGYDMGATRCDFTLHK | 2.2 |
| TASTKNCMVGYDMGATRCDFTLMK | 2 |
| TASTKNCMVGYDMGATRCDFTLFK | 1.55 |
| TASTKNCMVGYDMGATRCDFTLAK | 3.47 |
| TASTKNCMVGYDMGATRCDFTLGK | 2.45 |
| TASTKNCMVGYDMGATRCDFTLKK | 2.78 |
| TASTKNCMVGYDMGATRCDFTLDK | 2.55 |

| Variant | protein stability index |
| --- | --- |
| TASTKNCMVGYDRGATRCDFTLSK | 2.5 |
| TASTKNCMVGYDYGATRCDFTLSK | 2.54 |
| TASTKNCMVGYDVGATRCDFTLSK | 3.02 |
| TASTKNCMVGYDSGATRCDFTLSK | 2.81 |
| TASTKNCMVGYDWGATRCDFTLSK | 2.02 |
| TASTKNCMVGYDTGATRCDFTLSK | 2.99 |
| TASTKNCMVGYDMGATRCLFTLSK | 2.54 |
| TASTKNCMVGYDMGATRCRFTLSK | 2.9 |
| TASTKNCMVGYDMGATRCYFTLSK | 2.36 |
| TASTKNCMVGYDMGATRCVFTLSK | 1.78 |
| TASTKNCMVGYDMGATRCQFTLSK | 1.84 |
| TASTKNCMVGYDMGATRCAFTLSK | 2.9 |
| TASTKNCMVGYDMGATRCSFTLSK | 2.08 |
| TASTKNCMVGYDMGATRCGFTLSK | 1.94 |
| TASTKNCMVGYDMGATRCCFTLSK | 1.91 |
| TASTKNCMVGYDMGATRCWFTLSK | 2.24 |
| TASTKNCMVGYDMGATRCTFTLSK | 2.36 |
| TASTKNCMVGYDMGATRCKFTLSK | 2.67 |
| TASTKNCMVGYDMGATRCIFTLSK | 1.94 |
| TASTKNCMVGYDMGATRCEFTLSK | 2.18 |
| TASTKNCMVGYDMGATRCPFTLSK | 2.77 |
| TASTKNCMVGYDMGATRCNFTLSK | 3.07 |
| TASTKNCMVGYDMGATRCFFTLSK | 1.75 |
| TASTKNCMVGYDMGATRCHFTLSK | 2.59 |

| Variant | protein stability index |
| --- | --- |
| TASTKNCMVGYDMGATRCMFTLSK | 1.82 |
| TASTKNCMVGYDMGATRCDFHLSK | 3.16 |
| TASTKNCMVGYDMGATRCDFYLSK | 1.91 |
| TASTKNCMVGYDMGATRCDFRLSK | 2.89 |
| TASTKNCMVGYDMGATRCDFFLSK | 2.11 |
| TASTKNCMVGYDMGATRCDFELSK | 3.16 |
| TASTKNCMVGYDMGATRCDFSLSK | 2.21 |
| TASTKNCMVGYDMGATRCDFMLSK | 1.95 |
| TASTKNCMVGYDMGATRCDFGLSK | 2.48 |
| TASTKNCMVGYDMGATRCDFLLSK | 2.52 |
| TASTKNCMVGYDMGATRCDFVLSK | 2.48 |
| TASTKNCMVGYDMGATRCDFNLSK | 3.06 |
| TASTKNCMVGYDMGATRCDFILSK | 2.02 |
| TASTKNCMVGYDMGATRCDFPLSK | 2.71 |
| TASTKNCMVGYDMGATRCDFDLSK | 2.52 |
| TASTKNCMVGYDMGATRCDFWLSK | 1.67 |
| TASTKNCMVGYDMGATRCDFQLSK | 3.15 |
| TASTKNCMVGYDMGATRCDFKLSK | 3.35 |
| TASTKNCMVGYDMGATRCDFALSK | 2.37 |
| TASTKNCMVGYDMGATRCDFCLSK | 1.57 |
